Test results: paper doi:10.1101/2022.04.26.489529 (bioRxiv, 2022)

Tests used:
[1] = target: S protein of the SARS-CoV-2 strain D614G (SARS-CoV-2, D614G, UniProt A0A6H1PJZ3, D614G); assay: ELISA
[2] = target: stabilized Omicron S ECD HexaPro (SARS-CoV-2 Omicron BA.1, N440K | S477N | T478K | E484A | Q493R); assay: cryo-EM structure

Binder | binding result [1] | stoichiometry N [2] [Fab per trimer]
58G6 (antibody, V domains shown) VH: QMQLVQSGPEVKKPGTSVKVSCKASGFTFSSSAVQWVRQARGQHLEWIGWIVVGSGNTNYAQKFQERVTLTRDMSTRTAYMELSSLRSEDTAVYYCAAPNCNSTTCHDGFDIWGQGTVVTVSS VL: EIVLTQSPGTLSLSPGERATLSCRASQSVRSSYLGWYQQKPGQAPRLLIYGASSRATGIPDRFSGSGSGTDFTLTISRLESEDFAVYYCQQYDNSPWTFGQGTKVEIK | binds | –
58G6 Fab (Fab, V domains shown) VH: QMQLVQSGPEVKKPGTSVKVSCKASGFTFSSSAVQWVRQARGQHLEWIGWIVVGSGNTNYAQKFQERVTLTRDMSTRTAYMELSSLRSEDTAVYYCAAPNCNSTTCHDGFDIWGQGTVVTVSS VL: EIVLTQSPGTLSLSPGERATLSCRASQSVRSSYLGWYQQKPGQAPRLLIYGASSRATGIPDRFSGSGSGTDFTLTISRLESEDFAVYYCQQYDNSPWTFGQGTKVEIK | – | 1
